The record followed here is patent US20090325873A1, “HUMAN GLP-1 MIMETIBODIES, COMPOSITIONS, METHODS AND USES” (CENTOCOR, INC., priority 2006, published 2009).

The target of this test is GLP-1R on Rinm cells. The experiment in a line: cell-based or functional assay.

“GLP-1 peptide (from UniProt P01275 98-127)” showed a cAMP activity in Rinm cells, EC50 of 400 pM.
